The values below come from patent publication US20110190200A1 (INDIANA UNIVERSITY RESEARCH AND TECHNOLOGY, published 2011).

Assay in all cases: cell-based or functional assay
The target of test [1] is T1, GLP-1 receptor (UniProt P43220 24-463, limits assumed).
Test [2] deals with T2, glucagon receptor (human, UniProt P47871 26-477).
Test [3] has as its target T1, GLP-1 receptor. The source holds these as a separate data set.
Target sequence in this assay (P43220 24-463 limits assumed): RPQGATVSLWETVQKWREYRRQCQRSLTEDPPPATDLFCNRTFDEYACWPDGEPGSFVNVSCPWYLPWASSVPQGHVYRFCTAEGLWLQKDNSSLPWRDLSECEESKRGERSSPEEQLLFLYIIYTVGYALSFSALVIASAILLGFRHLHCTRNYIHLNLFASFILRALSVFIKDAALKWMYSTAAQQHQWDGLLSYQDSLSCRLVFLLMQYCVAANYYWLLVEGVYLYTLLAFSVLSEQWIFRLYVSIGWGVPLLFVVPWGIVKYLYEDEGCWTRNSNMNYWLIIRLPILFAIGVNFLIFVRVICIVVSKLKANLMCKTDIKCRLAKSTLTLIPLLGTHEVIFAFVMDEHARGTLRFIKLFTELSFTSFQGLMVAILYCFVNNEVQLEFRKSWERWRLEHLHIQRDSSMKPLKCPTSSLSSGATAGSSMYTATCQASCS
Test [4] concerns the target T2, glucagon receptor. The source holds these as a separate data set.

Numbered stars: 1 amine (or outer) side, 2 acyl side, 3 side chain; on linkers, the order of the positions; unused ones are H or OH. Square brackets hold non-standard residues; d marks the D form. Side chains are listed from the residue outwards. Ends that are not written are not given here. * marks the point of attachment. γGlu = O=C(O)[C@H](CCC(=O)[*:2])N[*:1]; Palmitoyl = CCCCCCCCCCCCCCCC(=O)*; Myristoyl = CCCCCCCCCCCCCC(=O)*; Aib = CC(C)(N)C(=O)O

In general, EC50 refers to the midpoint of the concentration-response curve. Higher therefore signals a need for much substance.

T2 sequence (P47871 26-477): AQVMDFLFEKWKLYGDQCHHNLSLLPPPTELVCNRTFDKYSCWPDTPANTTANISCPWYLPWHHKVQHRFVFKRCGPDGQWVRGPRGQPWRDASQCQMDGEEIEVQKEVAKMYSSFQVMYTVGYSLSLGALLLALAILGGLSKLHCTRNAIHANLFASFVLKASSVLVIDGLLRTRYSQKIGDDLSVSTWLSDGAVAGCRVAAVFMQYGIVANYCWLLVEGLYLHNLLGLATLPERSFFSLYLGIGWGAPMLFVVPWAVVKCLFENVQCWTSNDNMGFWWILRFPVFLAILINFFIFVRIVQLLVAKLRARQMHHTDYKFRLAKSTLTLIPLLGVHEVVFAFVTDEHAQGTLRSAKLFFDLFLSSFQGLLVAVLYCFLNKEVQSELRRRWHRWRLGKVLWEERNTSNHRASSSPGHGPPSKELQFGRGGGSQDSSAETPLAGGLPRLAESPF

B1: Peptide 78** (Table 11) (peptide)
peptide: H[Aib]QGTFTSDK([γGlu-γGlu-Myristoyl])SKYLD[Aib]RRAQDFVCWLMNT-NH2
modifications: N-terminus assumed
SMILES: CCCCCCCCCCCCCC(=O)N[C@@H](CCC(=O)N[C@@H](CCC(=O)NCCCC[C@H](NC(=O)[C@H](CC(=O)O)NC(=O)[C@H](CO)NC(=O)[C@@H](NC(=O)[C@H](Cc1ccccc1)NC(=O)[C@@H](NC(=O)CNC(=O)[C@H](CCC(N)=O)NC(=O)C(C)(C)NC(=O)[C@@H](N)Cc1c[nH]cn1)[C@@H](C)O)[C@@H](C)O)C(=O)N[C@@H](CO)C(=O)N[C@@H](CCCCN)C(=O)N[C@@H](Cc1ccc(O)cc1)C(=O)N[C@@H](CC(C)C)C(=O)N[C@@H](CC(=O)O)C(=O)NC(C)(C)C(=O)N[C@@H](CCCNC(=N)N)C(=O)N[C@@H](CCCNC(=N)N)C(=O)N[C@@H](C)C(=O)N[C@@H](CCC(N)=O)C(=O)N[C@@H](CC(=O)O)C(=O)N[C@@H](Cc1ccccc1)C(=O)N[C@H](C(=O)N[C@@H](CS)C(=O)N[C@@H](Cc1c[nH]c2ccccc12)C(=O)N[C@@H](CC(C)C)C(=O)N[C@@H](CCSC)C(=O)N[C@@H](CC(N)=O)C(=O)N[C@H](C(N)=O)[C@@H](C)O)C(C)C)C(=O)O)C(=O)O
B1: in test [1], it took 0.008 nM to reach a half-maximal effect (EC50 at GLP-1 Receptor). Also, the “EC50 at Glucagon Receptor” value in test [2] stood at 0.009 nM.
Take H[Aib]QGTFTSDK(C18 fatty acyl)SKYLDEQAAKEFIC(PEG 40 kDa)WLMNT-NH2 [Peptide Chimera 2-AIB2-K10-acylated]: it took 0.007 nM to reach a half-maximal effect in test [3] (EC50 at the GLP-1 receptor). This lies in the picomolar range.

B2: Peptide 77** (Table 11) (peptide)
peptide: H[Aib]QGTFTSDK(Myristoyl)SKYLD[Aib]RRAQDFVCWLMNT-NH2
modifications: N-terminus assumed
SMILES: CCCCCCCCCCCCCC(=O)NCCCC[C@H](NC(=O)[C@H](CC(=O)O)NC(=O)[C@H](CO)NC(=O)[C@@H](NC(=O)[C@H](Cc1ccccc1)NC(=O)[C@@H](NC(=O)CNC(=O)[C@H](CCC(N)=O)NC(=O)C(C)(C)NC(=O)[C@@H](N)Cc1c[nH]cn1)[C@@H](C)O)[C@@H](C)O)C(=O)N[C@@H](CO)C(=O)N[C@@H](CCCCN)C(=O)N[C@@H](Cc1ccc(O)cc1)C(=O)N[C@@H](CC(C)C)C(=O)N[C@@H](CC(=O)O)C(=O)NC(C)(C)C(=O)N[C@@H](CCCNC(=N)N)C(=O)N[C@@H](CCCNC(=N)N)C(=O)N[C@@H](C)C(=O)N[C@@H](CCC(N)=O)C(=O)N[C@@H](CC(=O)O)C(=O)N[C@@H](Cc1ccccc1)C(=O)N[C@H](C(=O)N[C@@H](CS)C(=O)N[C@@H](Cc1c[nH]c2ccccc12)C(=O)N[C@@H](CC(C)C)C(=O)N[C@@H](CCSC)C(=O)N[C@@H](CC(N)=O)C(=O)N[C@H](C(N)=O)[C@@H](C)O)C(C)C
For B2, the concentration for a half-maximal effect (EC50) at GLP-1 Receptor in test [1] worked out at 0.063 nM. Besides, the “EC50 at Glucagon Receptor” value in test [2] was determined as 0.144 nM.
As for HSQGTFTSDYSKYLDSRRAQDFVQWLMDTE [glucagon analog D28, E30], the “Observed EC50s (nM) in Cells Overexpressing the Glucagon Receptor, Test 3” value in test [4] was 0.05 nM.
Turning to HSQGTFTSDYSKYLESRRAQDFVQWLMDT [glucagon analog D28, E15], the “Observed EC50s (nM) in Cells Overexpressing the Glucagon Receptor, Test 3” value in test [4] amounted to 0.15 nM.

B3: Peptide 81** (Table 11) (peptide)
peptide: H[Aib]QGTFTSDK([Ala-Ala-Myristoyl])SKYLD[Aib]RRAQDFVCWLMNT-NH2
modifications: N-terminus assumed
SMILES: CCCCCCCCCCCCCC(=O)N[C@@H](C)C(=O)N[C@@H](C)C(=O)NCCCC[C@H](NC(=O)[C@H](CC(=O)O)NC(=O)[C@H](CO)NC(=O)[C@@H](NC(=O)[C@H](Cc1ccccc1)NC(=O)[C@@H](NC(=O)CNC(=O)[C@H](CCC(N)=O)NC(=O)C(C)(C)NC(=O)[C@@H](N)Cc1c[nH]cn1)[C@@H](C)O)[C@@H](C)O)C(=O)N[C@@H](CO)C(=O)N[C@@H](CCCCN)C(=O)N[C@@H](Cc1ccc(O)cc1)C(=O)N[C@@H](CC(C)C)C(=O)N[C@@H](CC(=O)O)C(=O)NC(C)(C)C(=O)N[C@@H](CCCNC(=N)N)C(=O)N[C@@H](CCCNC(=N)N)C(=O)N[C@@H](C)C(=O)N[C@@H](CCC(N)=O)C(=O)N[C@@H](CC(=O)O)C(=O)N[C@@H](Cc1ccccc1)C(=O)N[C@H](C(=O)N[C@@H](CS)C(=O)N[C@@H](Cc1c[nH]c2ccccc12)C(=O)N[C@@H](CC(C)C)C(=O)N[C@@H](CCSC)C(=O)N[C@@H](CC(N)=O)C(=O)N[C@H](C(N)=O)[C@@H](C)O)C(C)C
For B3, the “EC50 at GLP-1 Receptor” value in test [1] stood at 0.018 nM.
Regarding HSQGTFTSDYSKYLDSRRAQDFVQWLMNKK [glucagon analog K29, K30], the “Observed EC50s (nM) in Cells Overexpressing the Glucagon Receptor, Test 1” value in test [4] came to 0.89 nM.
On to HSQGTFTSDYSKYLDSRRAQDFVQWLMNTKK [glucagon analog K30, K31], for which the “Observed EC50s (nM) in Cells Overexpressing the Glucagon Receptor, Test 2” value in test [4] was found to be 0.12 nM.
Same read-out and setting: in the case of HSQGTFTSDYSKYLDSRRAQDFVQWLMNTE [glucagon analog E30] it was 0.04 nM.

B4: Peptide 80** (Table 11) (peptide)
peptide: H[Aib]QGTFTSDK([γGlu-γGlu-Palmitoyl])SKYLD[Aib]RRAQDFVCWLMNT-NH2
modifications: N-terminus assumed
SMILES: CCCCCCCCCCCCCCCC(=O)N[C@@H](CCC(=O)N[C@@H](CCC(=O)NCCCC[C@H](NC(=O)[C@H](CC(=O)O)NC(=O)[C@H](CO)NC(=O)[C@@H](NC(=O)[C@H](Cc1ccccc1)NC(=O)[C@@H](NC(=O)CNC(=O)[C@H](CCC(N)=O)NC(=O)C(C)(C)NC(=O)[C@@H](N)Cc1c[nH]cn1)[C@@H](C)O)[C@@H](C)O)C(=O)N[C@@H](CO)C(=O)N[C@@H](CCCCN)C(=O)N[C@@H](Cc1ccc(O)cc1)C(=O)N[C@@H](CC(C)C)C(=O)N[C@@H](CC(=O)O)C(=O)NC(C)(C)C(=O)N[C@@H](CCCNC(=N)N)C(=O)N[C@@H](CCCNC(=N)N)C(=O)N[C@@H](C)C(=O)N[C@@H](CCC(N)=O)C(=O)N[C@@H](CC(=O)O)C(=O)N[C@@H](Cc1ccccc1)C(=O)N[C@H](C(=O)N[C@@H](CS)C(=O)N[C@@H](Cc1c[nH]c2ccccc12)C(=O)N[C@@H](CC(C)C)C(=O)N[C@@H](CCSC)C(=O)N[C@@H](CC(N)=O)C(=O)N[C@H](C(N)=O)[C@@H](C)O)C(C)C)C(=O)O)C(=O)O
As for B4, a half-maximal effect in test [1] (EC50 at GLP-1 Receptor) was put at 0.008 nM. Moreover, the “EC50 at Glucagon Receptor” value in test [2] was 0.006 nM.
